The values that follow come from patent US20060177479A1.

The target in this assay is Notch receptor expressed on rat esophageal epithelial cells (rat). The experiment in a line: cell-based or functional assay.

Substance “Recombinant Rat Jagged-1/Fc chimera (Fc fusion)” gave a Notch/CSL signaling (luciferase/Renilla intensity), immobilized Jagged-1/Fc against Fc control of 10 fold and an increase in luciferase activity as compared to Fc control plates, 10 nM Jagged-1/Fc precoat, 24 hours of 4 to 10 fold.
